Test results: PMC8454712 (Biochemical Journal, 2021)

Target: Growth factor receptor-bound protein 2 (Grb2), HepG2 cells (human (endogenous in HepG2), UniProt P62993 1-217)
Assay: co-IP

Sequence of Growth factor receptor-bound protein 2 (Grb2), HepG2 cells (P62993 whole entry): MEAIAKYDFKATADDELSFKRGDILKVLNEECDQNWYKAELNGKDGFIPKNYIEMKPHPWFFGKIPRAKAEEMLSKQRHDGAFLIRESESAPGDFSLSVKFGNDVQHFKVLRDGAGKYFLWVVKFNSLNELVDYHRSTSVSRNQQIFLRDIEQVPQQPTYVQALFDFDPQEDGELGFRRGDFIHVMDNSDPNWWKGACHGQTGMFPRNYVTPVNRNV

B1: NADPH oxidase NOX4, HepG2 cells (natural protein, human (endogenous in HepG2), UniProt Q9NPH5 1-578, looked up)
chain: MAVSWRSWLANEGVKHLCLFIWLSMNVLLFWKTFLLYNQGPEYHYLHQMLGLGLCLSRASASVLNLNCSLILLPMCRTLLAYLRGSQKVPSRRTRRLLDKSRTFHITCGVTICIFSGVHVAAHLVNALNFSVNYSEDFVELNAARYRDEDPRKLLFTTVPGLTGVCMVVVLFLMITASTYAIRVSNYDIFWYTHNLFFVFYMLLTLHVSGGLLKYQTNLDTHPPGCISLNRTSSQNISLPEYFSEHFHEPFPEGFSKPAEFTQHKFVKICMEEPRFQANFPQTWLWISGPLCLYCAERLYRYIRSNKPVTIISVMSHPSDVMEIRMVKENFKARPGQYITLHCPSVSALENHPFTLTMCPTETKATFGVHLKIVGDWTERFRDLLLPPSSQDSEILPFIQSRNYPKLYIDGPFGSPFEESLNYEVSLCVAGGIGVTPFASILNTLLDDWKPYKLRRLYFIWVCRDIQSFRWFADLLCMLHNKFWQENRPDYVNIQLYLSQTDGIQKIIGEKYHALNSRLFIGRPRWKLLFDEIAKYNRGKTVGVFCCGPNSLSKTLHKLSNQNNSYGTRFEYNKESFS
fold change of the co-precipitated interaction, T2D condition against control: 1.35 fold
